Test results reported in article doi:10.1101/2021.04.26.441214 (bioRxiv, 2021).

What was measured:
Test in all cases: cryo-EM structure
[1] = target: T. maritima encapsulin shell protein (wild type) (T. maritima) (UniProt Q9WZP2)
[2] = target: T. maritima encapsulin shell protein (wild type) (T. maritima) (UniProt Q9WZP2); remark: listed apart in the source
[3] = target: the molecule itself

T. maritima encapsulin shell protein (wild type) (T. maritima), sequence (Q9WZP2 whole entry): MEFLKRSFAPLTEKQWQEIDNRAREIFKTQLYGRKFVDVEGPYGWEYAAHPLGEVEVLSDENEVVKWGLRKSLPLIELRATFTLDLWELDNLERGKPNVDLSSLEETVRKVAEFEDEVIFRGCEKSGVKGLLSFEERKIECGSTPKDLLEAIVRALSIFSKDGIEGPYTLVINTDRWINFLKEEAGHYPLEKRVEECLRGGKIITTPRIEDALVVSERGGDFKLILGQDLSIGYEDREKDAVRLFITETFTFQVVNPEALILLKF

Molecule: T. maritima encapsulin shell protein (wild type) (from UniProt Q9WZP2 1-265) (natural protein)
- stoichiometry N (subunits per shell) [1]: 60

B1: T. maritima ferritin-like protein (FLP) cargo (natural protein, UniProt Q9WZP3 1-114, looked up)
chain: MADQYHEPVSELTGKDRDFVRALNSLKEEIEAVAWYHQRVVTTKDETVRKILEHNRDEEMEHAAMLLEWLRRNMPGWDEALRTYLFTDKPITEIEEETSGGSENTGGDLGIRKL
- FLPs per shell (2D class averages) (FLPs per shell) [2]: 2
- stoichiometry N [3]: 10 subunits
